Reference: patent publication US20100143438A1, “BIOMOLECULES” (University of Strathclyde, priority 2006, published 2010)

Tested on: Fmoc-FRGD-PEGA surface tethered peptide (Fmoc-F↓RGD bond)
Test: Enzymatic hydrolysis of PEGA surface tethered peptides analysed by HPLC
Assay type: biochemical
Settings: for Fmoc-F-OH (%) / Fmoc-FR-OH (%): 37° C., 2 hours in enzyme solution, 100% = 4.08 nmol maximum Fmoc-peptide hydrolysed, n=9; for cleavage and selectivity for Fmoc-F↓RGD versus Fmoc-FR↓GD: HPLC
Protocol: Three proteolytic enzymes, chymotrypsin, thermolysin and proteinase K, that are known to cleave peptide bonds involving F amino acids in the P1 position were tested for their ability to selectively hydrolyse Fmoc-F↓RGD bond^15. […] Surfaces were incubated at 37° C. for 2 hours in enzyme solution (concentrations and activities are shown in Table 1) in phosphate buffer and the cleaved products were analysed by HPLC.
Surfaces were rinsed in a known volume (at least 4 ml) of a 50:50 mixture of acetonitrile (ACN) and water. The rinsing solution was kept and added to the enzyme solution that the surface was in. 1 ml of this solution was placed into an HPLC autosampler vial. The HPLC machine (manufactured by Dionex; California, USA) consisted of a P.680 HPLC pump joined to an ASI-100 Automated Sample Injector with a Dionex UVD17OU detector. The column was an EC 250/4.6 Nucleosil 100-5 C18, with an internal diameter of 4.6 mm and a column length of 250 mm containing particles of 5 μm in diameter. 100 μl was injected into the HPLC column at the start of each run and a buffer gradient run through the column, buffer A was 99.9% water and 0.1% TFA, buffer B was 99.9% ACN and 0.1% TFA. For quantification, three samples of each surface were produced and repeated three times.

B1: Thermolysin: proteolytic enzyme (metalloprotease) (protein, UniProt P00800 233-548, looked up)
Thermolysin: ITGTSTVGVGRGVLGDQKNINTTYSTYYYLQDNTRGNGIFTYDAKYRTTLPGSLWADADNQFFASYDAPAVDAHYYAGVTYDYYKNVHNRLSYDGNNAAIRSSVHYSQGYNNAFWNGSQMVYGDGDGQTFIPLSGGIDVVAHELTHAVTDYTAGLIYQNESGAINEAISDIFGTLVEFYANKNPDWEIGEDVYTPGISGDSLRSMSDPAKYGDPDHYSKRYTGTQDNGGVHINSGIINKAAYLISQGGTHYGVSVVGIGRDKLGKIFYRALTQYLTPTSNFSQLRAAAVQSATDLYGSTSQEVASVKQAFDAVGVK
  Fmoc-F-OH (%): 40 ± 2.4%
  Fmoc-FR-OH (%): 27 ± 3.5%
  cleavage and selectivity for Fmoc-F↓RGD versus Fmoc-FR↓GD: poor selectivity

B2: Proteinase K: proteolytic enzyme cleaving peptide bonds with F in P1 position (protein, UniProt P06873 106-384, looked up)
Proteinase K: AAQTNAPWGLARISSTSPGTSTYYYDESAGQGSCVYVIDTGIEASHPEFEGRAQMVKTYYYSSRDGNGHGTHCAGTVGSRTYGVAKKTQLFGVKVLDDNGSGQYSTIIAGMDFVASDKNNRNCPKGVVASLSLGGGYSSSVNSAAARLQSSGVMVAVAAGNNNADARNYSPASEPSVCTVGASDRYDRRSSFSNYGSVLDIFGPGTSILSTWIGGSTRSISGTSMATPHVAGLAAYLMTLGKTTAASACRYIADTANKGDLSNIPFGTVNLLAYNNYQA
  Fmoc-F-OH (%): 60 ± 3.0%
  Fmoc-FR-OH (%): 40 ± 8.0%
  cleavage and selectivity for Fmoc-F↓RGD versus Fmoc-FR↓GD: highest cleavage but poor selectivity
Determined by HPLC
  maximum amount of Fmoc-peptide cleaved from the surface: 4.08 nmol
